T1: RADIL, Q96JH8
T1 sequence (Q96JH8 971-1071, limits assumed, looked up): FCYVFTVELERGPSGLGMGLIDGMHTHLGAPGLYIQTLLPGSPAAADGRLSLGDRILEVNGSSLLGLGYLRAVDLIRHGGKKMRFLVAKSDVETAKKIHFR

T2: SNTA1, Q13424
T2 sequence (Q13424 82-180, limits assumed, looked up): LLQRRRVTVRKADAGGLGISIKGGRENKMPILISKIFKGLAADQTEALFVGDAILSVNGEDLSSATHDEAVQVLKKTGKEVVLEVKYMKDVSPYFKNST

T3: SHANK1, Q9Y566
T3 sequence (Q9Y566 658-767, limits assumed, looked up): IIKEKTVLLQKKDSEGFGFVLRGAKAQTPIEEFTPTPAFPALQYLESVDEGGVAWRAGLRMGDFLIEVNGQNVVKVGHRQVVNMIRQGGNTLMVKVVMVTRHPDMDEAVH

T4: MPDZ_10, O75970
T4 sequence (O75970 1624-1722, limits assumed, looked up): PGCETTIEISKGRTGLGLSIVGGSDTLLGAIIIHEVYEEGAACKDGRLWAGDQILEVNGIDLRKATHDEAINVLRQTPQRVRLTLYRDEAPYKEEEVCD

T5: GRIP1_3, Q9Y3R0
T5 sequence (Q9Y3R0 247-346, limits assumed, looked up): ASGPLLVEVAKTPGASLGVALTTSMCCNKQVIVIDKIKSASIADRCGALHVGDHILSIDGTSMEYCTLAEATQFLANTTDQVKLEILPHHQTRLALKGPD

T6: DVL3, Q92997
T6 sequence (Q92997 244-331, limits assumed, looked up): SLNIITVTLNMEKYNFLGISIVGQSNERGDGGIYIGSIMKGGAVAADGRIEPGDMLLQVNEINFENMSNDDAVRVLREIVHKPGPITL

T7: MPDZ_5, O75970
T7 sequence (O75970 695-796, limits assumed, looked up): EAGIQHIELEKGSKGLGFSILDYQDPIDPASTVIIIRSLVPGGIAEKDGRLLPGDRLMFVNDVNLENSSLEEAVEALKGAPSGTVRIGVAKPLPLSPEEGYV

T8: PCLO, Q9Y6V0
T8 sequence (Q9Y6V0 4491-4600, limits assumed, looked up): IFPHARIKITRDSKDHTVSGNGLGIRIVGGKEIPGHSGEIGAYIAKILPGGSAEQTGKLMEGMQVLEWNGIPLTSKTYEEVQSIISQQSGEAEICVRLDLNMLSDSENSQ

T9: PARD3B_1, Q8TEW8
T9 sequence (Q8TEW8 196-299, limits assumed, looked up): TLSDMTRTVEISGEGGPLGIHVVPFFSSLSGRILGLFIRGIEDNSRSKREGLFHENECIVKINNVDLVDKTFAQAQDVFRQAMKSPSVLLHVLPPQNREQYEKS

T10: SNTG1, Q9NSN8
T10 sequence (Q9NSN8 52-150, limits assumed, looked up): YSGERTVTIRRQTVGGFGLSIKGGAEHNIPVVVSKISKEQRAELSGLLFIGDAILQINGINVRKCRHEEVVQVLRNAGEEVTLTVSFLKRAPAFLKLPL

T11: LNX2_2, Q8N448
T11 sequence (Q8N448 334-432, limits assumed, looked up): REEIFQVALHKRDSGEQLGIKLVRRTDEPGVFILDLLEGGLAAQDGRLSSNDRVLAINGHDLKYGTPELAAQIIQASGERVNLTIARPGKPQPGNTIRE

T12: PDZD7_3, Q9H5P4
T12 sequence (Q9H5P4 857-944, limits assumed, looked up): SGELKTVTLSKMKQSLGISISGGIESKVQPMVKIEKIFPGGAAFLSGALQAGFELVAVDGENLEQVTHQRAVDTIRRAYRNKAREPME

T13: APBA3_1, O96018
T13 sequence (O96018 389-490, limits assumed, looked up): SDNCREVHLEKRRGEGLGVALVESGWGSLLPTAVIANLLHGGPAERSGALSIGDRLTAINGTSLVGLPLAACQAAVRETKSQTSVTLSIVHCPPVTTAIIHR


How the values were obtained:
Test in all cases: holdup assay
Set-up in all cases: key: below the threshold = too weak to quantify, mostly under pKd 3.1 to 4
Details in all cases: plain residues with an end cap or a label only (N-terminal biotin on a linker: ado-ado)
RADIL, Q96JH8 = target: T1, RADIL, Q96JH8
Inadl_3, Q8NI35 = target: Inadl_3, Q8NI35
Sequence of Inadl_3, Q8NI35 (Q8NI35 359-469): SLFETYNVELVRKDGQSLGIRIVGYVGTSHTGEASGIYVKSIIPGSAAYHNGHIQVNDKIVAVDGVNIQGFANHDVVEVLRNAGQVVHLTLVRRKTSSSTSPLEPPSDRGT

SNTA1, Q13424 = target: T2, SNTA1, Q13424
SHANK1, Q9Y566 = target: T3, SHANK1, Q9Y566
FRMPD2_3, Q68DX3 = target: FRMPD2_3, Q68DX3
Sequence of FRMPD2_3, Q68DX3 (Q68DX3 1073-1166): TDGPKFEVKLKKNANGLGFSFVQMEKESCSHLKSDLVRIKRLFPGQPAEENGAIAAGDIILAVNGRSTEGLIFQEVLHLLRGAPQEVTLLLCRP

LNX1_1, Q8TBB1 = target: LNX1_1, Q8TBB1
Sequence of LNX1_1, Q8TBB1 (Q8TBB1 261-371): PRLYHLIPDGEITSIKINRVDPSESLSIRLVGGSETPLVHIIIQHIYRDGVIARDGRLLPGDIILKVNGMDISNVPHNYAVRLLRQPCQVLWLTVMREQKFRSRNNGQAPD

MPDZ_10, O75970 = target: T4, MPDZ_10, O75970
GRIP1_3, Q9Y3R0 = target: T5, GRIP1_3, Q9Y3R0
DLG4_2, P78352 = target: DLG4_2, P78352
Sequence of DLG4_2, P78352 (P78352 155-259): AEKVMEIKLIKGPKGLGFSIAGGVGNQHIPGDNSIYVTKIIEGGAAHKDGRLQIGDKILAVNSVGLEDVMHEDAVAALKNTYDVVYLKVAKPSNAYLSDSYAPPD

DVL3, Q92997 = target: T6, DVL3, Q92997
MPDZ_5, O75970 = target: T7, MPDZ_5, O75970
MAGI1_2, Q96QZ7 = target: MAGI1_2, Q96QZ7
Sequence of MAGI1_2, Q96QZ7 (Q96QZ7 456-580): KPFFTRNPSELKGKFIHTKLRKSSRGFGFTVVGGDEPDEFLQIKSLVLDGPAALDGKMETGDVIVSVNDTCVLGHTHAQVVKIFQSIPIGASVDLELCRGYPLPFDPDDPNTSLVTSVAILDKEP

PCLO, Q9Y6V0 = target: T8, PCLO, Q9Y6V0
LIMK2, P53671 = target: LIMK2, P53671
Sequence of LIMK2, P53671 (P53671 143-248): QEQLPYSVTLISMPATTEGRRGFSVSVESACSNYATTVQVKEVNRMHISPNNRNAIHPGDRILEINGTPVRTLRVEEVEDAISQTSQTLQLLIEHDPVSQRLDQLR

IL16_1, Q14005 = target: IL16_1, Q14005
Sequence of IL16_1, Q14005 (Q14005 210-306): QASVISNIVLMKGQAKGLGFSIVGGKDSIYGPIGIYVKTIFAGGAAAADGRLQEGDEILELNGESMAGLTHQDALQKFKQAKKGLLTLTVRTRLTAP

CASK, O14936 = target: CASK, O14936
Sequence of CASK, O14936 (O14936 487-570): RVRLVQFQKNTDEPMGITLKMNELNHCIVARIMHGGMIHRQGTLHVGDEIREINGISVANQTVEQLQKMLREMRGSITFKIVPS

PARD3B_1, Q8TEW8 = target: T9, PARD3B_1, Q8TEW8
SNTG1, Q9NSN8 = target: T10, SNTG1, Q9NSN8
LNX2_2, Q8N448 = target: T11, LNX2_2, Q8N448
MAGI2_4, Q86UL8 = target: MAGI2_4, Q86UL8
Sequence of MAGI2_4, Q86UL8 (Q86UL8 772-865): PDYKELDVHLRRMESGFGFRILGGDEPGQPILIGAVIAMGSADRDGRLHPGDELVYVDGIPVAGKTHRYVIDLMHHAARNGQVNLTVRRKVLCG

PDZD7_3, Q9H5P4 = target: T12, PDZD7_3, Q9H5P4
GRID2IP_1, A4D2P6 = target: GRID2IP_1, A4D2P6
Sequence of GRID2IP_1, A4D2P6 (A4D2P6 1-87): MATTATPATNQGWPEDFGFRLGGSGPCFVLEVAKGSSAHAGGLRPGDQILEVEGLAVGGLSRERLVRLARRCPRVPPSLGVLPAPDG

PDZRN4_1, Q6ZMN7 = target: PDZRN4_1, Q6ZMN7
Sequence of PDZRN4_1, Q6ZMN7 (Q6ZMN7 213-318): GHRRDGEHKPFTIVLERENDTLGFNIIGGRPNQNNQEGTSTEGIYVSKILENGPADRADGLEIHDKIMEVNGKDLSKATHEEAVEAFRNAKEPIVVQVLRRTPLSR

APBA3_1, O96018 = target: T13, APBA3_1, O96018

Row | pKd (RADIL, Q96JH8) | pKd (Inadl_3, Q8NI35) | pKd (SNTA1, Q13424) | pKd (SHANK1, Q9Y566) | pKd (FRMPD2_3, Q68DX3) | pKd (LNX1_1, Q8TBB1) | pKd (MPDZ_10, O75970) | pKd (GRIP1_3, Q9Y3R0) | pKd (DLG4_2, P78352) | pKd (DVL3, Q92997) | pKd (MPDZ_5, O75970) | pKd (MAGI1_2, Q96QZ7) | pKd (PCLO, Q9Y6V0) | pKd (LIMK2, P53671) | pKd (IL16_1, Q14005) | pKd (CASK, O14936) | pKd (PARD3B_1, Q8TEW8) | pKd (SNTG1, Q9NSN8) | pKd (LNX2_2, Q8N448) | pKd (MAGI2_4, Q86UL8) | Binder | also measured
1 | below the threshold | below the threshold | below the threshold | 5.21 | below the threshold | below the threshold | below the threshold | below the threshold | below the threshold | below the threshold | below the threshold | below the threshold | below the threshold | below the threshold | below the threshold | below the threshold | below the threshold | below the threshold | below the threshold | below the threshold | AEDEEIQTKM [UNC93A, Q86WB7] | pKd (PDZD7_3, Q9H5P4): below the threshold; pKd (GRID2IP_1, A4D2P6): below the threshold; pKd (PDZRN4_1, Q6ZMN7): below the threshold; pKd (APBA3_1, O96018): below the threshold
2 | 3.66 | 3.59 | below the threshold | below the threshold | below the threshold | below the threshold | below the threshold | below the threshold | below the threshold | below the threshold | below the threshold | below the threshold | below the threshold | below the threshold | 3.49 | below the threshold | below the threshold | below the threshold | below the threshold | below the threshold | LGHTPFVDEL [UQCRC2, P22695] | pKd (PDZD7_3, Q9H5P4): below the threshold; pKd (GRID2IP_1, A4D2P6): below the threshold; pKd (PDZRN4_1, Q6ZMN7): below the threshold; pKd (APBA3_1, O96018): below the threshold
3 | 3.64 | below the threshold | 3.61 | below the threshold | below the threshold | 3.7 | 3.97 | below the threshold | 4.15 | below the threshold | below the threshold | 3.99 | below the threshold | below the threshold | below the threshold | below the threshold | below the threshold | 3.48 | below the threshold | 3.69 | QNRIITKTDV [SMCHD1, A6NHR9] | pKd (PDZD7_3, Q9H5P4): 4.13; pKd (GRID2IP_1, A4D2P6): below the threshold; pKd (PDZRN4_1, Q6ZMN7): below the threshold; pKd (APBA3_1, O96018): below the threshold

Second part, the binder before the results:

Row | Binder | pKd (RADIL, Q96JH8) | pKd (Inadl_3, Q8NI35) | pKd (SNTA1, Q13424) | pKd (SHANK1, Q9Y566) | pKd (FRMPD2_3, Q68DX3) | pKd (LNX1_1, Q8TBB1) | pKd (MPDZ_10, O75970) | pKd (GRIP1_3, Q9Y3R0) | pKd (DLG4_2, P78352) | pKd (DVL3, Q92997) | pKd (MPDZ_5, O75970) | pKd (MAGI1_2, Q96QZ7) | pKd (PCLO, Q9Y6V0) | pKd (LIMK2, P53671) | pKd (IL16_1, Q14005) | pKd (CASK, O14936) | pKd (PARD3B_1, Q8TEW8) | pKd (SNTG1, Q9NSN8) | pKd (LNX2_2, Q8N448) | pKd (MAGI2_4, Q86UL8) | also measured
4 | GDGLDDEIAV [NOS1AP, O75052] | below the threshold | below the threshold | 3.75 | below the threshold | 3.82 | below the threshold | below the threshold | below the threshold | below the threshold | below the threshold | below the threshold | below the threshold | below the threshold | below the threshold | below the threshold | below the threshold | below the threshold | below the threshold | 4.37 | below the threshold | pKd (PDZD7_3, Q9H5P4): below the threshold; pKd (GRID2IP_1, A4D2P6): below the threshold; pKd (PDZRN4_1, Q6ZMN7): below the threshold; pKd (APBA3_1, O96018): below the threshold
5 | SVISRREWYV [NECTIN3, Q9NQS3] | 5.27 | 5.03 | 3.48 | below the threshold | 4.44 | below the threshold | below the threshold | below the threshold | 3.75 | 4.69 | 5.19 | 4.78 | below the threshold | below the threshold | 3.88 | 3.75 | 4.79 | 3.79 | 5.15 | 4.11 | pKd (PDZD7_3, Q9H5P4): below the threshold; pKd (GRID2IP_1, A4D2P6): below the threshold; pKd (PDZRN4_1, Q6ZMN7): below the threshold; pKd (APBA3_1, O96018): below the threshold
6 | YPKQMPLSQV [FZD8, Q9H461] | 3.7 | below the threshold | 3.67 | below the threshold | below the threshold | 3.74 | 3.7 | below the threshold | below the threshold | below the threshold | below the threshold | 3.55 | below the threshold | below the threshold | below the threshold | below the threshold | below the threshold | 4.04 | below the threshold | below the threshold | pKd (PDZD7_3, Q9H5P4): 4.17; pKd (GRID2IP_1, A4D2P6): below the threshold; pKd (PDZRN4_1, Q6ZMN7): below the threshold; pKd (APBA3_1, O96018): below the threshold
